Reference: patent US20240251767A1 (LEVERAGEN, published 2024)
Like-named read-outs stand apart in the source and are kept apart here.

B1: M2S521_378 Nb-human Fc fusion (Fc fusion, not shown: a dimerising Fc or GST)
VH: EVQLQQSGPELVKPGASVKISCKASGYTFTDYYMKWVKQSHGKSLEWIGDINPKNGGTNYNQKFKDKATLTVDKSSSTAYMELRSLTSEDSAVYYCARLEDGYYGYAIDYWSQGTSVTVSS
notes: also called LVGN-S231378; LVGN-S521378
B2: MS329_5 Nb-human Fc fusion (Fc fusion, not shown: a dimerising Fc or GST)
VH: EVQLQQSGPELVKPGASVKMSCKASGYTFTDYYIKWEKQSHGKSLEWIGDINPKNGETFYNQQFKGKATLTVDKSSSTAYMQLNSLTSEDSAVYYCARKEYGDYGYAVDYWGQGTSVTVSS
notes: also called LVGN-S3205; LVGN-53205

Key:
[1] = target: T1, Spike protein of the COVID-19 Spike-ACE2 Binding Assay Kit (Raybiotech) (SARS-CoV2, UniProt P0DTC2 319-541)
[2] = target: T1, Spike protein of the COVID-19 …; remark: listed apart in the source

Row | Binder | IC50 [1] | IC50 [2]
1 | B1 | 3.3 nM | 
2 | B2 | 0.4 nM | 0.397 nM
